Source: patent US20100047166A1 (published 2010)

Molecular target: T1, 58P1D12 protein expressed on the cell surface (3T3-58P1D12, MDCK/58P1D12, OVCAR-5/58P1D12, xenograft cells) (human, UniProt Q9H9P2 22-273)
T1 construct: also called cell surface 58P1D12; 58P1D12-3T3
T1 sequence: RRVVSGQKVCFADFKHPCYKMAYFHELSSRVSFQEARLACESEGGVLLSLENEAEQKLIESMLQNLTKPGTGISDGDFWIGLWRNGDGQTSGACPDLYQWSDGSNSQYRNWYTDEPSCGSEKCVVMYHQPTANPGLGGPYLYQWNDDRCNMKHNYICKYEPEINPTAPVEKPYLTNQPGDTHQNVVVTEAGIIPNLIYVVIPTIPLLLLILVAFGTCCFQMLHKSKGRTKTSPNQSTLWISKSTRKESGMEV
Test: FACS saturation binding on 3T3-58P1D12 cells, one site binding fit

Kd: 3 nM
B1: 58P1D12 MAb Ha8-4c4.1 (hybridoma ATCC PTA-9404) (antibody, V domains shown)
VH: QVQLQESGPGLVKPSETLSLTCTVSGGSVSSGGYYWSWIRQPPGKGLEWIGYIYYSGGTNYNPSLKSRVTISVDTSKNQFSLKLTSVTAADTAVYYCARESGYCTNVACFPDAFDIWGQGTMVTVSS
VL: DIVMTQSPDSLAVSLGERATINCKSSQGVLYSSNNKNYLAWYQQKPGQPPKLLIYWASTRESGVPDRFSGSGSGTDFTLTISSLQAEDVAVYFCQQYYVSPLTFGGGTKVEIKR
notes: Fully human IgG1 kappa (gamma 1 kappa) from XenoMouse
